In the test the target is T1, proPC2 (proform of the prohormone convertase PC2) (UniProt P28841 25-637).
T1 sequence (looked up): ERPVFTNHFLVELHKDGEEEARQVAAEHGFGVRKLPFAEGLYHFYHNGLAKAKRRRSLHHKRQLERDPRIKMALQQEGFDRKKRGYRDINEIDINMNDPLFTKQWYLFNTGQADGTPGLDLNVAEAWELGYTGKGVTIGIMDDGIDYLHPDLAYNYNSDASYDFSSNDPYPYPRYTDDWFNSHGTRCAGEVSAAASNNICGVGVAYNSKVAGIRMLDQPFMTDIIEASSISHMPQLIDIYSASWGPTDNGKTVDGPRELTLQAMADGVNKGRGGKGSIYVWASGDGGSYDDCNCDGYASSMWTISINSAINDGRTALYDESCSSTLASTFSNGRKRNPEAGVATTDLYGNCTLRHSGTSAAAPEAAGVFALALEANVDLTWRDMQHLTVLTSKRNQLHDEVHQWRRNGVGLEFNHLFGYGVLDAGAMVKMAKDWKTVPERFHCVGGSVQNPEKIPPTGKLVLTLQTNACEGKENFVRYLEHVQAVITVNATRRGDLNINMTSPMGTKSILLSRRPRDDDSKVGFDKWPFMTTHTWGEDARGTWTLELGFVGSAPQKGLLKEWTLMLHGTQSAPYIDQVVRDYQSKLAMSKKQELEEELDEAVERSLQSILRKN
Briefly: co-IP.

Where “and” joins values, the source holds several entries; their conditions need not be identical. Equal values may be shown once.

From paper PMC2291188 (The Journal of Cell Biology, 1995) come the findings set out here.

B1: 27 kD 7B2 (rat) (natural protein, UniProt P27682 25-210, looked up)
chain: YSPRTPDRVSETDIQRLLHGVMEQLGIARPRVEYPAHQAMNLVGPQSIEGGAHEGLQHLGPFGNIPNIVAELTGDNIPKDFSEDQGYPDPPNPCPLGKTADDGCLENAPDTAEFSREFQLDQHLFDPEHDYPGLGKWNKKLLYEKMKGGQRRKRRSVNPYLQGKRLDNVVAKKSVPHFSEEEKEPE
Consider B1, for which the “stoichiometry N” value was 1.12 mol 7B2 per mol PC2 (molar ratio, Clone#1) and 1.09 mol 7B2 per mol PC2 (molar ratio, Clone#2).
